This note sets out measurements from paper PMC11861898 (Communications Biology, 2025).

Assay [1] concerns the target T1, human CIB2 1-187 (calcium- and integrin-binding protein 2), wild type (human, UniProt O75838 1-187).
T1 sequence: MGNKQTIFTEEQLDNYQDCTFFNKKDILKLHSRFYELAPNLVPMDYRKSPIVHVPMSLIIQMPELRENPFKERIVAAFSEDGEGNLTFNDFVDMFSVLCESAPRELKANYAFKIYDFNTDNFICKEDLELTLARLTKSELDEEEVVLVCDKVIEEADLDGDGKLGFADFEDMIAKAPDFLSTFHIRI
The experiment in a line: ITC.

Assay [2] has as its target T2, human CIB2 R66W (deafness-related variant) (human, UniProt O75838 1-187, R66W).
T2 sequence: T1 sequence with R66W
Briefly: pull-down.

Assay [3] addresses T3, human CIB2 F91S (deafness-related variant) (human, UniProt O75838 1-187, F91S).
T3 sequence: T1 sequence with F91S
The experiment in a line: pull-down.

Assay [4] has as its target T4, human CIB2 R186W (deafness-related variant) (human, UniProt O75838 1-187, R186W).
T4 sequence: T1 sequence with R186W
Briefly: pull-down.

In assay [5] the target is T2, human CIB2 R66W (deafness-related …). Briefly: ITC.
The target in assay [6] is T3, human CIB2 F91S (deafness-related …). Briefly: ITC.
Assay [7] deals with T4, human CIB2 R186W (deafness-related …). Briefly: ITC.
The target of assay [8] is T5, human CIB2 1-187 Q17A/T20A (human, UniProt O75838 1-187, Q17A | T20A).
T5 sequence: T1 sequence with Q17A, T20A
Briefly: ITC.

Assay [9] concerns the target T6, human CIB2 1-187 D127A/D168A (EF-hand double mutant) (human, UniProt O75838 1-187, D127A | D168A).
T6 sequence: T1 sequence with D127A, D168A
Briefly: ITC.

The target in assay [10] is T7, human CIB2 E64D (deafness-related variant) (human, UniProt O75838 1-187, E64D).
T7 sequence: T1 sequence with E64D
The experiment in a line: ITC.

For assay [11], the target named is T8, human CIB2 Y115C (deafness-related variant) (human, UniProt O75838 1-187, Y115C).
T8 sequence: T1 sequence with Y115C
Briefly: ITC.

The target in assay [12] is T9, human CIB2 I123T (deafness-related variant) (human, UniProt O75838 1-187, I123T).
T9 sequence: T1 sequence with I123T
The experiment in a line: ITC.

A further assay deals with T10, mouse CIB3 (mouse, UniProt A0A5F8MPX9 1-187).
T10 sequence: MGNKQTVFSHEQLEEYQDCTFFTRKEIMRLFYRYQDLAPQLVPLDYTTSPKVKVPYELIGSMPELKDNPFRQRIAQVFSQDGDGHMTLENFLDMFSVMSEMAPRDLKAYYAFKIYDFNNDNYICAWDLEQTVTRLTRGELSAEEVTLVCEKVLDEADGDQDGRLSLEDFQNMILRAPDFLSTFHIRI
Briefly: ITC.

Assay [13] concerns the target T1, human CIB2 1-187 (calcium- and …). The experiment in a line: SEC-MALS.
The target in the next assay is T11, human CIB2 1-187 E11R (human, UniProt O75838 1-187, E11R).
T11 sequence: T1 sequence with E11R
Briefly: ITC + SEC.

A further assay addresses T12, human CIB2 1-187 F21Q (human, UniProt O75838 1-187, F21Q).
T12 sequence: T1 sequence with F21Q
The experiment in a line: ITC + SEC.

For assay [14], the target named is T7, human CIB2 E64D (deafness-related …). The experiment in a line: pull-down.
Assay [15] has as its target T8, human CIB2 Y115C (deafness-related …). The experiment in a line: pull-down.
Assay [16] deals with T9, human CIB2 I123T (deafness-related …). The experiment in a line: pull-down.
For assay [17], the target named is T1, human CIB2 1-187 (calcium- and …). The experiment in a line: ITC + SEC.

Changes are numbered by the printed parent chain. Numbers in names are those of the source.

B1: human TMC2 CBD-2 (aa 363-424) (domain or fragment)
chain: NTQGSTGEGESDNFTFSFKMFTSWDYLIGNSETADNKYASITTSFKESIVDEQESNKEENIH
Take B1: the binding result in assay [1] is on record as “binds”.

B2: GST-tagged human TMC1 CBD-2 (298-359) (domain or fragment)
chain: KNIGDDGGGDDNTFNFSWKVFTSWDYLIGNPETADNKFNSITMNFKEAITEEKAAQVEENVH
For the molecule B2, the binding result in [2], in assay [3] and in assay [4] was “binds” throughout.

B3: human TMC1 CBD-2, amino acids 298-359 (first cytoplasmic loop between TM domains 2 and 3) (domain or fragment)
chain: B2 chain
For the molecule B3, the binding result in [5], in assay [6] and in assay [7] was “binds” each time.

B4: human TMC1 CBD-1 (CIB binding domain-1), residues 86-136 (domain or fragment)
chain: EEELERLKAELDEKRQIIATVKCKPWKMEKKIEVLKEAKKFVSENEGALGK
Regarding B4, in assay [1], the Kd was approximately 300 nM. In addition, the “fold decrease in binding affinity against wild-type CIB2” value in [8] was more than 15 fold. The binding result in [9], in assay [10], in assay [5], in assay [11], in assay [12] and in assay [7] was “binds” each time. Also, the binding result with mouse CIB3, with human CIB2 1-187 E11R and with human CIB2 1-187 F21Q was “binds” each time. The “stoichiometry N” value in [13] is 1.

B5: GST-tagged human TMC1 CBD-1 (86-136) (domain or fragment)
chain: B4 chain
On to B5, for which the binding result in assay [14], in assay [2], in assay [15], in [16] and in [4] was “binds” each time.

B6: human TMC1 CBD-1 (86-136) K107A (domain or fragment)
chain: B4 chain with K22A
As to B6, in [17], the binding result is on record as “binds”.

B7: human TMC1 CBD-1 (86-136) K121E (domain or fragment)
chain: B4 chain with K36E
In the case of B7, in [17], the binding result is reported as “binds”.

Take ELDEKRQIIATVKCKPWKMEKKIEVLKEAKKFVSENEGALGK (domain or fragment) [human TMC1 fragment 95-136]: the Kd in [1] was approximately 4600 nM.

B8: human TMC2 CBD-1 (aa 150-200) (domain or fragment)
chain: EEELAQILEQVEEKKKLIATMRSKPWPMAKKLTELREAQEFVEKYEGALGK
As to B8, the Kd in assay [1] is approximately 600 nM.
